Measurements published in patent US7309578B2, “Therapeutic treatment of chronic obstructive pulmonary disease” (The Trustees of Columbia University in the City of New York, priority 2000, dated 2007).

Key:
[1] = test system: small airway epithelial cells, lung microvascular endothelial cells, lung fibroblasts; experiment: Transfection of lung cells with a sFrp1 expression vector, Annexin-V-Biotin assay; format: cell-based, human; details: for apoptosis-inducing activity on transfection: normal human primary lung epithelial, endothelial and fibroblast cells transfected with sFrp1-Gfp expression vector
Source text: (§1) Transfection of Lung Cells with a sFrp1 Expression Vector: The mouse sFrp1 full length cDNA was generously provided by Drs. Jeremy Nathans and Amir Rattner, John Hopkins University, Baltimore, and subcloned into a pCMS-EGFP vector (Clontech, Palo Alto, Calif.). A gene of sFrp1w&s inserted into the multiple cloning site at EcoRI and Sail sites between the cytomegalovirus early promoter and SV40 polyadenilation signals, which direct proper processing of the 3′ end of sFrp1 mRNA. The vector also has a Gfp (green fluorescent protein) gene located in downstream of the sFrp1-SV40 polyadenilation signals and ligated between the SV40 enhancer/promoter sequence and a polyadenylation signal from the bovine growth hormone gene. This vector construct allows transcriptions of sFrp1 and Gfp as separate proteins in transfected cells. Normal human primary cultured cells of small airway epithelial cells (SAEC 6043), lung microvascular endothelial cells (HMVEC L 6521-3), and lung fibroblasts (NHLF 5975) were obtained from BioWhittaker (Walkersville, Md.) and cultured in proper media containing 10% fetal bovine serum. Cells were plated 2 days before transfection in 4-well LabTek II chamber (Nalge Nunc International, Naperville, Ill.) at 2×10^4 cells/chamber and incubated at 37*C in 5% COj incubator. The sFrp1-Gjp expression vector or Gfp vector without sFrp gene (0.8 ujj) were transfected into cells using Lipofectaniine PLUS according to the manufacture's instruction (Gibco BRL). For Annexin-V-Biotin assay (Roche Diagnostics GmbH, Manheim, Germany), ceils were harvested at 72, 48, 24, 12 or 6 h after transfection and the reaction was detected by ExtraAvidin-Cy3 (Sigma). For caspase 3 activation assay, cells were fixed in 3% paraformaldehyde in PBS after 24 or 48 h of transfection and incubated with anti-human active caspase 3 antibody made by rabbit (x100, clone 9661. Cell Signaling Technology, Beverly, Mass.). Biotinylated goat IgG to rabbit IgG (Vector) and ExtraAvidin-Cy3 (Sigma) were used for detection of binding of a primary antibody.

[2] = test system: small airway epithelial cells, lung microvascular endothelial cells, lung fibroblasts; experiment: Transfection of lung cells with a sFrp1 expression vector, caspase 3 activation assay (immunostaining); format: cell-based, human; details: 24 or 48 h after transfection
Source text: as §1, with “Cells were plated 2 days before transfection in 4-well LabTek II chamber (Nalge Nunc International, Naperville, Ill.) at 2×10^4 cells/chamber and incubated at 37*C in 5% COj incubator. The sFrp1-Gjp expression vector or Gfp vector without sFrp gene (0.8 ujj) were transfected into cells using Lipofectaniine PLUS according to the manufacture's instruction (Gibco BRL).” left out, “For caspase 3 activation assay, cells were fixed in 3% paraformaldehyde in PBS after 24 or 48 h of transfection and incubated with anti-human active caspase 3 antibody made by rabbit (x100, clone 9661. Cell Signaling Technology, Beverly, Mass.). Biotinylated goat IgG to rabbit IgG (Vector) and ExtraAvidin-Cy3 (Sigma) were used for detection of binding of a primary antibody.” left out

B1: sFrp1: mouse secreted frizzled-related protein 1, expressed from full length cDNA in a pCMS-EGFP vector transfected into cells (protein, UniProt Q8C4U3 1-314, looked up)
chain: MGVGRSARGRGGAASGVLLALAAALLAAGSASEYDYVSFQSDIGSYQSGRFYTKPPQCVDIPVDLRLCHNVGYKKMVLPNLLEHETMAEVKQQASSWVPLLNKNCHMGTQVFLCSLFAPVCLDRPIYPCRWLCEAVRDSCEPVMQFFGFYWPEMLKCDKFPEGDVCIAMTPPNTTEASKPQGTTVCPPCDNELKSEAIIEHLCASEFALRMKIKEVKKENGDKKIVPKKKKPLKLGPIKKKELKRLVLFLKNGADCPCHQLDNLSHNFLIMGRKVKSQYLLTAIHKWDKKNKEFKNFMKRMKNHECPTFQSVFK
modifications: full-length
notes: mouse secreted frizzled-related protein 1, expressed from full length cDNA in a pCMS-EGFP vector transfected into cells
With B1 the “phosphatidylserine exposure to the outer cell membrane (annexin V assay)” value ([1]; 6-72 h after transfection, data not shown) was “time- and dose-dependency of cell death to sFrp1 expression”, the “apoptosis-inducing activity on transfection” value [1] was “apoptosis-inducing activity of sFrp1 without preference of cell-type examined” and the “apoptosis-inducing activity on transfection” value ([1]; listed as sFRP-1) was “leads to apoptosis in lung epithelial cells, endothelial cells and fibroblasts”. The “active caspase 3 immunostaining” value [2] was “presence of acive caspase 3 in and surrounding cells transfected sFrp1”.
